Measurements published in paper PMC5890618, “Structural and Functional Insights into Bacillus subtilis Sigma Factor Inhibitor, CsfB” (Structure(London, England:1993), 2018).

B1: σ^E (truncated sigma factor E, residues 17-239, lacking the N-terminal membrane-anchored pro-sequence) (domain or fragment, Bacillus subtilis, UniProt P06222 17-239, looked up)
chain: MKLGLKSDEVYYIGGSEALPPPLSKDEEQVLLMKLPNGDQAARAILIERNLRLVVYIARKFENTGINIEDLISIGTIGLIKAVNTFNPEKKIKLATYASRCIENEILMYLRRNNKIRSEVSFDEPLNIDWDGNELLLSDVLGTDDDIITKDIEANVDKKLLKKALEQLNEREKQIMELRFGLVGEEEKTQKDVADMMGISQSYISRLEKRIIKRLRKEFNKMV
notes: Cloned into pET28-TxrA; The tag was removed with TEV 'when required'; also called sigma E; SigE; source: E. coli BL21(DE3)pLysS, purified (HisTrap Ni Sepharose, Superdex75 SEC)
B3: CsfB^A48E (full-length CsfB variant A48E, residues 1-64) (natural protein, Bacillus subtilis, UniProt P37534 1-64, looked up)
chain: MDETVKLNHTCVICDQEKNRGIHLYTKFICLDCERKVISTSTSDPDYEFYVKKLKSIHTPPLYS
notes: Anti-sigma factor CsfB (also called Gin), Bacillus subtilis strain PY79, full length, residues 1-64, with A48E at the known cleavage point; Made by site-directed mutagenesis of pNIC28-CsfB; The His-tag was removed with TEV 'when required'; 15N-labelled for the NMR titrations; also called Gin A48E; source: E. coli BL21(DE3)pLysS, purified (HisTrap Ni Sepharose, Superdex75 SEC)

Key:
[1] = molecular target: B3; experiment: ITC; cell 60 uM CsfB^A48E, syringe 395 uM σ^E; 25°C; 19 injections of 2 ul; 50 mM HEPES pH 7.5, 150 mM KCl, 0.5 mM TCEP; fitted assuming 1:1 stoichiometry; conditions: both partners purified
[2] = molecular target: the molecule itself; experiment: NMR solution structure; CsfB 1-48 dimer, >500 uM, 303 K, 50 mM HEPES pH 7.5, 150 mM KCl, 0.5 mM TCEP; intermolecular NOEs from 12C-filtered, 13C-edited NOESY on a mixed labelled/unlabelled dimer; ARIA2.3 with C2 symmetry
[3] = molecular target: B1; experiment: ITC; cell 60 uM CsfB^A48E, syringe 395 uM σ^E; 25°C; 19 injections of 2 ul; 50 mM HEPES pH 7.5, 150 mM KCl, 0.5 mM TCEP; fitted assuming 1:1 stoichiometry; conditions: both partners purified
[4] = molecular target: T1, σ^G (recombinant full-length sigma factor G, residues 1-260) (Bacillus subtilis, UniProt P19940 1-260); experiment: NMR titration; 15N-labelled CsfB (100 uM for CsfB^A48E) titrated with unlabelled sigma factor up to 1:2 molar equivalents; 1H-15N SOFAST-HMQC; 298 K; 50 mM HEPES pH 7.5, 150 mM KCl, 0.5 mM TCEP; conditions: both partners purified
T1 construct: Cloned into pET-46; also called sigma G; SigG; source: E. coli BL21(DE3)pLysS, purified (HisTrap Ni Sepharose, Superdex75 SEC)
T1 sequence (looked up): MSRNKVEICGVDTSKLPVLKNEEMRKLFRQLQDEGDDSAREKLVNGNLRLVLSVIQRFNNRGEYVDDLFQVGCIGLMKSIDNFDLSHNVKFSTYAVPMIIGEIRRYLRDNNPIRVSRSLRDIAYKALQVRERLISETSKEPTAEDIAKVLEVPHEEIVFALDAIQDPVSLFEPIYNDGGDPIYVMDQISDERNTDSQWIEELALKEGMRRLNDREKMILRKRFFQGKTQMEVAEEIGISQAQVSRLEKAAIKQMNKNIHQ

Binder: B1
- dH [1]: -33.64 ± 0.167 kJ/mol
- stoichiometry N [1]: 1.01 sites

B2: CsfB^1-48 (truncated wild-type CsfB, stable degradation product, residues 1-48) (domain or fragment, Bacillus subtilis, UniProt P37534 1-48, looked up)
chain: MDETVKLNHTCVICDQEKNRGIHLYTKFICLDCERKVISTSTSDPDYA
notes: Produced as N-terminally histidine-tagged full-length CsfB that degraded to 1-48; Symmetrical homodimer by NMR; also called cleaved CsfB; truncated variant; source: E. coli BL21(DE3)pLysS, purified (HisTrap Ni Sepharose, Superdex75 SEC); arises by degradation of recombinant full-length CsfB
- stoichiometry N [2]: 2

Binder: B3
- Kd [3]: 0.0125 ± 0.0024 µM
- binding result [4]: binds
